According to US20220213169A1:
Where a chain is given by its changes, count along the chain named. Where “and” joins values, the source holds several entries; their conditions need not be identical. Identical values can stand only once.

T1: human ADAM8 (human) (UniProt P78325)
T1 sequence: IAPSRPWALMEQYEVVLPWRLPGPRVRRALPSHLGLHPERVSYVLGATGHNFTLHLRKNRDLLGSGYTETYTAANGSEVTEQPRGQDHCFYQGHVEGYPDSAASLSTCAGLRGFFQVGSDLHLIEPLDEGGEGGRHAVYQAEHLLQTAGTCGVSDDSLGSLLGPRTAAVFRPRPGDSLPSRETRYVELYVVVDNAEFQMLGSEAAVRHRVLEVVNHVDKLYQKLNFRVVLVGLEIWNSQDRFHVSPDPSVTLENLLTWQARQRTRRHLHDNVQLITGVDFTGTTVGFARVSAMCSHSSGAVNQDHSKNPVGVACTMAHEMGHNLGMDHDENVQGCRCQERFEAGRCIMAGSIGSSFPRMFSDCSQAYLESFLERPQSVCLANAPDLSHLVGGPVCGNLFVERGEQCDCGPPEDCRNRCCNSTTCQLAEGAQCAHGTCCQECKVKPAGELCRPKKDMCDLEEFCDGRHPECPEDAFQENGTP

B1: ADAM8 prodomain peptide SEQ ID NO: 4 (peptide, not shown: small tags and cut ends)
chain: MIAPSRPWALMEQYEVVLPRRLPGPRVRAALPSHLGLHPERVSYVLGATGHNFTLHLRKNRDLLGSGYTETYTAANGSEVTEQPRGQDHSFYQGHVEGYPDSAASLSTSAGLRGFFQVGSDLHLIEPLDEGGEGGRHAVYQAEHLLQTAGTSGVSDDSLGSLLGPRTAAVFRPRPGDSLPS
B2: SEQ ID NO: 14 (pegylated on 3 cysteines) (peptide, not shown: small tags and cut ends)
chain: B1 chain with A29R, S90C, S109C, S152C
modifications: 2 kDa maleimide PEG on all three cysteines (cysteines 105, 124 and 167 of SEQ ID NO: 1 numbering; positions 90, 109 and 152 of SEQ ID NO: 14)
B3: ADAM8 prodomain peptide SEQ ID NO: 17 (peptide, not shown: small tags and cut ends)
chain: B1 chain with R20W, R26K, A29K
B4: ADAM8 prodomain peptide SEQ ID NO: 16 (peptide, not shown: small tags and cut ends)
chain: B1 chain with A29R, S90C, F91L, S109C, S152C
B5: SEQ ID NO: 17 (Pegylated on N-terminus) (peptide, part only; not given: added cysteine residues and His tag, not shown: small tags and cut ends)
chain, part: B1 chain with R20W, R26K, A29K
modifications: 5 kDa maleimide PEG on an introduced cysteine near the N-terminus
B6: SEQ ID NO: 15 (pegylated at C-terminus) (peptide, part only; not given: added cysteine residues and His tag, not shown: small tags and cut ends)
chain, part: B1 chain with A29G
modifications: 5 kDa maleimide PEG on an added cysteine near the C-terminus
B7: ADAM8 prodomain peptide SEQ ID NO: 14 (peptide, not shown: small tags and cut ends)
chain: B1 chain with A29R, S90C, S109C, S152C
B8: wild type human ADAM8 prodomain peptide SEQ ID NO: 2 (peptide, not shown: small tags and cut ends)
chain: B1 chain with R20W, A29R, S90C, S109C, S152C
B9: ADAM8 prodomain peptide SEQ ID NO: 15 (peptide, not shown: small tags and cut ends)
chain: B1 chain with A29G

Each binder was assayed against T1, human ADAM8 (human) (assay: cell-based or functional assay).

percent inhibition of ADAM8 (cleavage of fluorescence energy transfer substrate PEPDAB064 or PEPDAB013) (% inhibition at 5 uM) | IC50 for inhibition of ADAM8 (cleavage of fluorescence energy transfer substrate PEPDAB064 or PEPDAB013) | percent inhibition of ADAM8 (cleavage of fluorescence energy transfer substrate PEPDAB064 or PEPDAB013) (% inhibition at 4.8 uM) | Binder
40 |  |  | B1
 | 2700 nM and 2300 nM |  | B2
 |  | 51 | B3
 | 400 nM |  | B4
 | 24000 nM |  | B5
 | 1800 nM and 3000 nM |  | B6
 | 1400 nM and 2300 nM |  | B7
 | 2800 nM and 2300 nM |  | B8
 |  | 45 | B9
